One test has as its target FGFR2 Kinase (Homo sapiens, UniProt P21802). Description: FGFR2 kinase inhibition. Type of test: biochemical. The following applies: percent inhibition of control enzyme activity; test concentration not given. Here is the method: [The source words this procedure for another target and reports this target under the same test.] Evaluation of the effects of the dodecapeptides of the invention on the activity of the human FGFR1 kinase were quantified by measuring the phosphorylation of the substrate Ulight-CAGAGAIETDKEYYTVKD (JAK1) using a human recombinant enzyme expressed in insect cells and the LANCE® detection method using the protocol described below:
The peptide to be tested, the reference compound or water (control) are mixed with the enzyme (0.252 ng) in a buffer containing 40 mM Hepes/Tris (pH 7.4), 0.8 mM EGTA/Tris, 8 mM MgCl2, 1.6 mM DTT and 0.008% Tween 20 (For control basal measurements, the enzyme is omitted from the reaction mixture). Thereafter, the reaction is initiated by adding 100 nM of the substrate Ulight-CAGAGAIETDKEYYTVKD (SEQ ID NO: 13) (JAK-1 peptide) and 100 μM ATP, and the mixture is incubated for 60 min at room temperature. Following incubation, the reaction is stopped by adding 13 mM EDTA. After 5 min, the anti-phospho-PT66 antibody labeled with europium chelate (EU-W1024-labeled Anti-Phosphotyrosine Antibody PT66, from Perkin Elmer) is added. After 60 more min, the fluorescence transfer is measured at λex=337 nm, λem=620 nm and λem=665 nm using a microplate reader (Envision, Perkin Elmer).
The enzyme activity is determined by dividing the signal measured at 665 nm by that measured at 620 nm (ratio). The results are expressed as a percent inhibition of the control enzyme activity.
The standard inhibitory reference compound is staurosporine, which is tested in each experiment at several concentrations to obtain an inhibition curve from which its IC50 value is calculated.
Results showing an inhibition (or stimulation for assays run in basal conditions) higher than 20% are considered to represent significant effects of the peptides of the invention.

The target in another test is FGFR4 Kinase (UniProt P22455 460-802, limits assumed). In words: cell-based or functional assay.
Sequence of FGFR4 Kinase (P22455 460-802 limits assumed): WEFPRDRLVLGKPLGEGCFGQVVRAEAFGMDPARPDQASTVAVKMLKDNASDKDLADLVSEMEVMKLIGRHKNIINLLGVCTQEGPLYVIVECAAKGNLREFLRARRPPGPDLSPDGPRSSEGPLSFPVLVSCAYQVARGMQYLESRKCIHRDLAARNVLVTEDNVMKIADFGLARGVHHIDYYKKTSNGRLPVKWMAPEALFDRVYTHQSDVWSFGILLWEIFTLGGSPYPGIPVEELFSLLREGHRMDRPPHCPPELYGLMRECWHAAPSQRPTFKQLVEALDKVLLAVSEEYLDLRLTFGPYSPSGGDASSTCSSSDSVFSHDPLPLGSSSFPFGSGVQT
In the next test the target is human FGFR1 kinase (human, UniProt P11362 398-822, limits assumed). Description: cell-based or functional assay.
Sequence of human FGFR1 kinase (P11362 398-822 limits assumed): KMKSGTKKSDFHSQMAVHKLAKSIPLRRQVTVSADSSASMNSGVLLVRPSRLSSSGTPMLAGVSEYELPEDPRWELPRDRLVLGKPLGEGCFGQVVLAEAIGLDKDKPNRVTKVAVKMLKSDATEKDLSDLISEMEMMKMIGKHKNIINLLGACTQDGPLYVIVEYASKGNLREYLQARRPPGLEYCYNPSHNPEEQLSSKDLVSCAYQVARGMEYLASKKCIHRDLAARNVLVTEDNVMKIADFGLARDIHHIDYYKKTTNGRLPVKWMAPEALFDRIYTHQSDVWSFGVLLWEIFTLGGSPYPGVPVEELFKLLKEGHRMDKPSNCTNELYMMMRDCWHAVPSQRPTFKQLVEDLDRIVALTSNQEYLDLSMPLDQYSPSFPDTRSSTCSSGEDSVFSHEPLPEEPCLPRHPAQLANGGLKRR
The next test addresses FGFR3 Kinase (UniProt P22607 436-806). In words: cell-based or functional assay.

*: point of attachment. Palmitoyl = CCCCCCCCCCCCCCCC(=O)*

Sequence of FGFR3 Kinase (P22607 436-806 limits assumed): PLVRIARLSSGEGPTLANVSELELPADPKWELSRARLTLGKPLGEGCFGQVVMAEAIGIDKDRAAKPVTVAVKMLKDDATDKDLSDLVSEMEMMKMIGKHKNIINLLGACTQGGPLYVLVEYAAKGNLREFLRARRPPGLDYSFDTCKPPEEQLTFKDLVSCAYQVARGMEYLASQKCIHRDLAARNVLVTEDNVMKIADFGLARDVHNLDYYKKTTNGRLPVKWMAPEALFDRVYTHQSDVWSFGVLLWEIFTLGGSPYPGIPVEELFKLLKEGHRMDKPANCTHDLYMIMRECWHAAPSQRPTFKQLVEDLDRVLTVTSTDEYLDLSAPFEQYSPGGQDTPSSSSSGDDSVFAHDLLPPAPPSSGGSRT
Sequence of FGFR2 Kinase (P21802 22-821): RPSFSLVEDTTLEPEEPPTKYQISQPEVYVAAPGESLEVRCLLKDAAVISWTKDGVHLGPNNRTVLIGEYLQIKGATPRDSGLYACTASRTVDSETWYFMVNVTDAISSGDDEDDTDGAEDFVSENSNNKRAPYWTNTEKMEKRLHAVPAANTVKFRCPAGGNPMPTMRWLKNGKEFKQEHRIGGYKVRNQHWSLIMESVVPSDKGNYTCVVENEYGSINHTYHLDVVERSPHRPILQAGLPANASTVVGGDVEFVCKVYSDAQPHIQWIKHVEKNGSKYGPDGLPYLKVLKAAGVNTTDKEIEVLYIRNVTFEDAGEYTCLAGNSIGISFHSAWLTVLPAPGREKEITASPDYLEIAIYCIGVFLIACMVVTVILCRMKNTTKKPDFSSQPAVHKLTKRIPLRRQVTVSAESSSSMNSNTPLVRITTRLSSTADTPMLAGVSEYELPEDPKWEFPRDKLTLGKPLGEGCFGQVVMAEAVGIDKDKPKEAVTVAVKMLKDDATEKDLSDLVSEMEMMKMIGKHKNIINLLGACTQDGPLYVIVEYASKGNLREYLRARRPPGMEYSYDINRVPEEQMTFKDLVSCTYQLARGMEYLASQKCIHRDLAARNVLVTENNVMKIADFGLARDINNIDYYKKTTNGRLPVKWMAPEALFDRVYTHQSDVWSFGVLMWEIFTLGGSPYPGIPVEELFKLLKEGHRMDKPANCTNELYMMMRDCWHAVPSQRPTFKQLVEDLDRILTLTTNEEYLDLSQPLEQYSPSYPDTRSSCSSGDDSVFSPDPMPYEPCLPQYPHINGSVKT

As for “Palm-Lys-Ala-Asn-Leu-Pro-Leu-Gly-Asn-Tyr-Lys-Lys-Pro-NH2 (Palmitoyl-KANLPLGNYKKP-NH2; SMILES CCCCCCCCCCCCCCCC(=O)N[C@@H](CCCCN)C(=O)N[C@@H](C)C(=O)N[C@@H](CC(N)=O)C(=O)N[C@@H](CC(C)C)C(=O)N1CCC[C@H]1C(=O)N[C@@H](CC(C)C)C(=O)NCC(=O)N[C@@H](CC(N)=O)C(=O)N[C@@H](Cc1ccc(O)cc1)C(=O)N[C@@H](CCCCN)C(=O)N[C@@H](CCCCN)C(=O)N1CCC[C@H]1C(N)=O) [Peptide 2]”, in the test with FGFR2 Kinase, the “FGFR2 Kinase % Inhibition” value worked out at 96.3%.

B1: Peptide 11: Palm-Lys-Phe-Asn-Leu-Pro-Leu-Gly-Asn-Tyr-Lys-Ala-Pro-NH2 (peptide)
peptide: Palmitoyl-KFNLPLGNYKAP-NH2
SMILES: CCCCCCCCCCCCCCCC(=O)N[C@@H](CCCCN)C(=O)N[C@@H](Cc1ccccc1)C(=O)N[C@@H](CC(N)=O)C(=O)N[C@@H](CC(C)C)C(=O)N1CCC[C@H]1C(=O)N[C@@H](CC(C)C)C(=O)NCC(=O)N[C@@H](CC(N)=O)C(=O)N[C@@H](Cc1ccc(O)cc1)C(=O)N[C@@H](CCCCN)C(=O)N[C@@H](C)C(=O)N1CCC[C@H]1C(N)=O
B1: the “FGFR4 Kinase % Inhibition” value in the test with FGFR4 Kinase is 0%. For the same molecule, the “FGFR1 Kinase % Inhibition” value with human FGFR1 kinase came to 0%. Moreover, the “FGFR3 Kinase % Inhibition” value in the test with FGFR3 Kinase was determined as 19.3%.

B2: Peptide 8: Palm-Lys-Phe-Asn-Leu-Pro-Leu-Gly-Ala-Tyr-Lys-Lys-Pro-NH2 (peptide)
peptide: Palmitoyl-KFNLPLGAYKKP-NH2
SMILES: CCCCCCCCCCCCCCCC(=O)N[C@@H](CCCCN)C(=O)N[C@@H](Cc1ccccc1)C(=O)N[C@@H](CC(N)=O)C(=O)N[C@@H](CC(C)C)C(=O)N1CCC[C@H]1C(=O)N[C@@H](CC(C)C)C(=O)NCC(=O)N[C@@H](C)C(=O)N[C@@H](Cc1ccc(O)cc1)C(=O)N[C@@H](CCCCN)C(=O)N[C@@H](CCCCN)C(=O)N1CCC[C@H]1C(N)=O
Regarding B2, in the test with FGFR4 Kinase, the “FGFR4 Kinase % Inhibition” value stood at 89.5%. Besides, the “FGFR1 Kinase % Inhibition” value with human FGFR1 kinase came out at 0%. The “FGFR3 Kinase % Inhibition” value with FGFR3 Kinase stood at 87.9%.

B3: Peptide 6: Palm-Lys-Phe-Asn-Leu-Pro-Ala-Gly-Asn-Tyr-Lys-Lys-Pro-NH2 (peptide)
peptide: Palmitoyl-KFNLPAGNYKKP-NH2
SMILES: CCCCCCCCCCCCCCCC(=O)N[C@@H](CCCCN)C(=O)N[C@@H](Cc1ccccc1)C(=O)N[C@@H](CC(N)=O)C(=O)N[C@@H](CC(C)C)C(=O)N1CCC[C@H]1C(=O)N[C@@H](C)C(=O)NCC(=O)N[C@@H](CC(N)=O)C(=O)N[C@@H](Cc1ccc(O)cc1)C(=O)N[C@@H](CCCCN)C(=O)N[C@@H](CCCCN)C(=O)N1CCC[C@H]1C(N)=O
For the molecule B3, the “FGFR4 Kinase % Inhibition” value with FGFR4 Kinase is 69.8%. Further, in the test with human FGFR1 kinase, the “FGFR1 Kinase % Inhibition” value was 92.7%. The “FGFR3 Kinase % Inhibition” value with FGFR3 Kinase is 78.5%.

B4: Peptide 5: Palm-Lys-Phe-Asn-Leu-Ala-Leu-Gly-Asn-Tyr-Lys-Lys-Pro-NH2 (peptide)
peptide: Palmitoyl-KFNLALGNYKKP-NH2
SMILES: CCCCCCCCCCCCCCCC(=O)N[C@@H](CCCCN)C(=O)N[C@@H](Cc1ccccc1)C(=O)N[C@@H](CC(N)=O)C(=O)N[C@@H](CC(C)C)C(=O)N[C@@H](C)C(=O)N[C@@H](CC(C)C)C(=O)NCC(=O)N[C@@H](CC(N)=O)C(=O)N[C@@H](Cc1ccc(O)cc1)C(=O)N[C@@H](CCCCN)C(=O)N[C@@H](CCCCN)C(=O)N1CCC[C@H]1C(N)=O
With B4, the “FGFR4 Kinase % Inhibition” value with FGFR4 Kinase was determined as 0%. Moreover, the “FGFR1 Kinase % Inhibition” value with human FGFR1 kinase was 0%. The “FGFR3 Kinase % Inhibition” value with FGFR3 Kinase was determined as 49.6%.

B5: Peptide 7: Palm-Lys-Phe-Asn-Leu-Pro-Leu-Ala-Asn-Tyr-Lys-Lys-Pro-NH2 (peptide)
peptide: Palmitoyl-KFNLPLANYKKP-NH2
SMILES: CCCCCCCCCCCCCCCC(=O)N[C@@H](CCCCN)C(=O)N[C@@H](Cc1ccccc1)C(=O)N[C@@H](CC(N)=O)C(=O)N[C@@H](CC(C)C)C(=O)N1CCC[C@H]1C(=O)N[C@@H](CC(C)C)C(=O)N[C@@H](C)C(=O)N[C@@H](CC(N)=O)C(=O)N[C@@H](Cc1ccc(O)cc1)C(=O)N[C@@H](CCCCN)C(=O)N[C@@H](CCCCN)C(=O)N1CCC[C@H]1C(N)=O
As to B5, the “FGFR4 Kinase % Inhibition” value in the test with FGFR4 Kinase was determined as 67.9%. Besides, in the test with human FGFR1 kinase, the “FGFR1 Kinase % Inhibition” value turned out to be 0%. In the test with FGFR3 Kinase, the “FGFR3 Kinase % Inhibition” value turned out to be 72.9%.

B6: Peptide 1: Palm-Lys-Phe-Asn-Leu-Pro-Leu-Gly-Asn-Tyr-Lys-Lys-Pro-NH2 (peptide)
peptide: Palmitoyl-KFNLPLGNYKKP-NH2
SMILES: CCCCCCCCCCCCCCCC(=O)N[C@@H](CCCCN)C(=O)N[C@@H](Cc1ccccc1)C(=O)N[C@@H](CC(N)=O)C(=O)N[C@@H](CC(C)C)C(=O)N1CCC[C@H]1C(=O)N[C@@H](CC(C)C)C(=O)NCC(=O)N[C@@H](CC(N)=O)C(=O)N[C@@H](Cc1ccc(O)cc1)C(=O)N[C@@H](CCCCN)C(=O)N[C@@H](CCCCN)C(=O)N1CCC[C@H]1C(N)=O
Regarding B6, the “FGFR4 Kinase % Inhibition” value in the test with FGFR4 Kinase amounted to 38.7%. Besides, the “FGFR1 Kinase % Inhibition” value with human FGFR1 kinase amounted to 0%. In the test with FGFR3 Kinase, the “FGFR3 Kinase % Inhibition” value was 75.8%.

B7: Peptide 2: Palm-Lys-Ala-Asn-Leu-Pro-Leu-Gly-Asn-Tyr-Lys-Lys-Pro-NH2 (peptide)
peptide: Palmitoyl-KANLPLGNYKKP-NH2
SMILES: CCCCCCCCCCCCCCCC(=O)N[C@@H](CCCCN)C(=O)N[C@@H](C)C(=O)N[C@@H](CC(N)=O)C(=O)N[C@@H](CC(C)C)C(=O)N1CCC[C@H]1C(=O)N[C@@H](CC(C)C)C(=O)NCC(=O)N[C@@H](CC(N)=O)C(=O)N[C@@H](Cc1ccc(O)cc1)C(=O)N[C@@H](CCCCN)C(=O)N[C@@H](CCCCN)C(=O)N1CCC[C@H]1C(N)=O
For B7, the “FGFR4 Kinase % Inhibition” value with FGFR4 Kinase was 96.4%. Besides, the “FGFR1 Kinase % Inhibition” value in the test with human FGFR1 kinase was 0%. The “FGFR3 Kinase % Inhibition” value in the test with FGFR3 Kinase was determined as 38.8%.

B8: Peptide 12: Palm-Lys-Phe-Asn-Leu-Pro-Leu-Gly-Asn-Tyr-Lys-Lys-Ala-NH2 (peptide)
peptide: Palmitoyl-KFNLPLGNYKKA-NH2
SMILES: CCCCCCCCCCCCCCCC(=O)N[C@@H](CCCCN)C(=O)N[C@@H](Cc1ccccc1)C(=O)N[C@@H](CC(N)=O)C(=O)N[C@@H](CC(C)C)C(=O)N1CCC[C@H]1C(=O)N[C@@H](CC(C)C)C(=O)NCC(=O)N[C@@H](CC(N)=O)C(=O)N[C@@H](Cc1ccc(O)cc1)C(=O)N[C@@H](CCCCN)C(=O)N[C@@H](CCCCN)C(=O)N[C@@H](C)C(N)=O
B8: in the test with FGFR4 Kinase, the “FGFR4 Kinase % Inhibition” value is 42.3%. The “FGFR1 Kinase % Inhibition” value with human FGFR1 kinase came to 0%. In addition, the “FGFR3 Kinase % Inhibition” value with FGFR3 Kinase is 46.4%.

B9: Peptide 3: Palm-Lys-Phe-Ala-Leu-Pro-Leu-Gly-Asn-Tyr-Lys-Lys-Pro-NH2 (peptide)
peptide: Palmitoyl-KFALPLGNYKKP-NH2
SMILES: CCCCCCCCCCCCCCCC(=O)N[C@@H](CCCCN)C(=O)N[C@@H](Cc1ccccc1)C(=O)N[C@@H](C)C(=O)N[C@@H](CC(C)C)C(=O)N1CCC[C@H]1C(=O)N[C@@H](CC(C)C)C(=O)NCC(=O)N[C@@H](CC(N)=O)C(=O)N[C@@H](Cc1ccc(O)cc1)C(=O)N[C@@H](CCCCN)C(=O)N[C@@H](CCCCN)C(=O)N1CCC[C@H]1C(N)=O
Take B9: in the test with FGFR4 Kinase, the “FGFR4 Kinase % Inhibition” value was found to be 65.9%. Also, the “FGFR1 Kinase % Inhibition” value in the test with human FGFR1 kinase stood at 85%. Also, the “FGFR3 Kinase % Inhibition” value in the test with FGFR3 Kinase stood at 91.9%.

B10: Peptide 4: Palm-Lys-Phe-Asn-Ala-Pro-Leu-Gly-Asn-Tyr-Lys-Lys-Pro-NH2 (peptide)
peptide: Palmitoyl-KFNAPLGNYKKP-NH2
SMILES: CCCCCCCCCCCCCCCC(=O)N[C@@H](CCCCN)C(=O)N[C@@H](Cc1ccccc1)C(=O)N[C@@H](CC(N)=O)C(=O)N[C@@H](C)C(=O)N1CCC[C@H]1C(=O)N[C@@H](CC(C)C)C(=O)NCC(=O)N[C@@H](CC(N)=O)C(=O)N[C@@H](Cc1ccc(O)cc1)C(=O)N[C@@H](CCCCN)C(=O)N[C@@H](CCCCN)C(=O)N1CCC[C@H]1C(N)=O
As for B10, in the test with FGFR4 Kinase, the “FGFR4 Kinase % Inhibition” value amounted to 0%. Besides, the “FGFR1 Kinase % Inhibition” value with human FGFR1 kinase was 0%. In addition, the “FGFR3 Kinase % Inhibition” value with FGFR3 Kinase was found to be 60.8%.

B11: Peptide 9: Palm-Lys-Phe-Asn-Leu-Pro-Leu-Gly-Asn-Ala-Lys-Lys-Pro-NH2 (peptide)
peptide: Palmitoyl-KFNLPLGNAKKP-NH2
SMILES: CCCCCCCCCCCCCCCC(=O)N[C@@H](CCCCN)C(=O)N[C@@H](Cc1ccccc1)C(=O)N[C@@H](CC(N)=O)C(=O)N[C@@H](CC(C)C)C(=O)N1CCC[C@H]1C(=O)N[C@@H](CC(C)C)C(=O)NCC(=O)N[C@@H](CC(N)=O)C(=O)N[C@@H](C)C(=O)N[C@@H](CCCCN)C(=O)N[C@@H](CCCCN)C(=O)N1CCC[C@H]1C(N)=O
As for B11, the “FGFR4 Kinase % Inhibition” value in the test with FGFR4 Kinase is 92.5%. For the same molecule, the “FGFR1 Kinase % Inhibition” value with human FGFR1 kinase came to 15.7%. Besides, in the test with FGFR3 Kinase, the “FGFR3 Kinase % Inhibition” value was 91.6%.

B12: Peptide 10: Palm-Lys-Phe-Asn-Leu-Pro-Leu-Gly-Asn-Tyr-Ala-Lys-Pro-NH2 (peptide)
peptide: Palmitoyl-KFNLPLGNYAKP-NH2
SMILES: CCCCCCCCCCCCCCCC(=O)N[C@@H](CCCCN)C(=O)N[C@@H](Cc1ccccc1)C(=O)N[C@@H](CC(N)=O)C(=O)N[C@@H](CC(C)C)C(=O)N1CCC[C@H]1C(=O)N[C@@H](CC(C)C)C(=O)NCC(=O)N[C@@H](CC(N)=O)C(=O)N[C@@H](Cc1ccc(O)cc1)C(=O)N[C@@H](C)C(=O)N[C@@H](CCCCN)C(=O)N1CCC[C@H]1C(N)=O
Regarding B12, the “FGFR4 Kinase % Inhibition” value with FGFR4 Kinase turned out to be 0%. Further, the “FGFR1 Kinase % Inhibition” value with human FGFR1 kinase was determined as 0%. In the test with FGFR3 Kinase, the “FGFR3 Kinase % Inhibition” value came out at 0%.

These data come from patent US20180258140A1, “NEW DODECAPEPTIDES AND MICROCAPSULES FUNCTIONALISED WITH THEM TARGETED TO FIBROBLASTS” (Infinitec Activos, S.L., priority 2015, published 2018).
